Three molecules from patent US20230071609A1 (Genentech, published 2023) can be followed below.

The target in assay [1] is T1, APOL1 very C-terminal peptide aa 376-398 (human).
T1 peptide: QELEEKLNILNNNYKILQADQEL
In words: overlapping ~20-mer peptides (SPR, western blot); antibody named in paragraph 192. Here is the method: Following three TBST washes, anti-mouse (GE Healthcare NA931V, 1:3000) or anti-rabbit HRP (Jackson 711-036-152, 1:8000) was added as secondary antibody. After 1 h, membranes were washed and protein detected using ECL prime (Amersham RPN2232) exposed to MR film (Kodak). Anti-actin HRP-conjugated antibody (clone 13E5, Cell Signaling Technologies 5125S at 1:5000) or calnexin (Abcam Ab22595 at 1:1000) was used as a loading control. For peptide mapping, 2 μl of 1 mM peptides in DMSO were boiled in 5× sample buffer and loaded on 10% Tris-Glycine gel and run using MES buffer. Cell pellets of Sf9 lysates were lysed in native RIPA (NP-40) lysis buffer and run on 10% Tris-Glycine gels.
A 96×96 array-based SPR imaging system (Carterra USA) was used for epitope mapping of anti-ApoL1 monoclonal antibodies. Briefly, purified monoclonal hybridoma antibodies were diluted at 10 μg/ml in 10 mM sodium acetate buffer pH 4.5. Using amine coupling, antibodies were directly immobilized onto a SPR sensorprism CMD 200M chip (XanTec Bioanalytics, Germany) using a Continuous Flow Microspotter (Carterra, USA) to create an array of antibodies. After coupling, the antibodies were blocked with ethanolamine, and primed with running buffer (10 mM HEPES, pH 7.4, 150 mM NaCl, 3 mM EDTA, and 0.005% Tween 20). Epitope mapping was performed by flowing 100 nM of different peptides of APOL1 across the immobilized anti-APOL1 antibodies on the biosensor chip at 25° C. in a running buffer of 10 mM HEPES, pH 7.4, 150 mM NaCl, 3 mM EDTA, and 0.005% Tween 20. After each flow through of the APOL1 peptide, the chip surface was regenerated using 10 mM glycine, pH 2.0.
A general note: Immunoblotting shows a protein as a band on a membrane.

For assay [2], the target named is T2, gD-MAD-SRA-ID-GPI (construct d) (human, UniProt O14791 238-398, C-terminal GPI anchor).
T2 sequence: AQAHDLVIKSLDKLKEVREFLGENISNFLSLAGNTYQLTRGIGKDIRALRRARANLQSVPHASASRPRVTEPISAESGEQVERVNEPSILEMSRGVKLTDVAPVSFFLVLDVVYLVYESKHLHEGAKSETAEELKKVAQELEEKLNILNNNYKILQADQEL
In words: flow cytometry, live CHO cells; 3.7D6 is the representative PFD antibody. Here is the method: Stably transfected live (not fixed or permeabilized) CHO cells expressing the gD-iAPOL1-GPI constructs indicated in FIGS. 1A-1E after induction with 5 μg/ml dox for 48 h, showing differential antibody binding at 5 μg/ml. […] White histograms are Alexa488 anti-mouse or anti-rabbit secondaries only; grey histograms are the anti-APOL1 signals. A representative histogram for each category is shown: 3.7D6 for PFD; 3.3A8 for C-terminus of MAD, 3.5H9 for N-terminus of MAD; 3.1C1 for SRA-ID; 3.2D4 for multi-domain; 3.3F7 for conformational and 3.5B10 for FACS-negative (FACS-ve). The prefix 3 in the name of the antibodies denotes murine monoclonals from Method #3 (as shown in Example 1 below); other antibodies (not illustrated here) starting with the number 4 are murine monoclonals derived from mice additionally boosted with SRA-ID protein; and prefix 5-named antibodies are rabbit monoclonals from Method #5 (Table 2A; and Example 2). […] The Sigma polyclonal (HPA018885, raised to aa 263-387) and the Epitomics rabbit monoclonal (EPR2907(2), raised to an undisclosed peptide) are SRA-ID binders. […]
Cells were harvested with 5 mM EDTA in PBS, washed once with growth media and twice with PBS. […] Signals were read in a FACSCalibur3 (Becton Dickinson), with the exception of FIG. 8A and FIG. 14, which used a FACSCelesta, and data was analyzed using FlowJo v8.4.5.
(In flow cytometry, cells or beads pass a laser one at a time.)

Assay [3] has as its target T3, endogenous human APOL1 (wild-type immortalized podocytes; also JHH-1 cells, kidney and liver tissue) (human, UniProt O14791 28-398).
T3 construct: whole, on cells; Cell or tissue and permeabilization are told under assay; also called podocyte APOL1; endogenous APOL1
T3 sequence (looked up): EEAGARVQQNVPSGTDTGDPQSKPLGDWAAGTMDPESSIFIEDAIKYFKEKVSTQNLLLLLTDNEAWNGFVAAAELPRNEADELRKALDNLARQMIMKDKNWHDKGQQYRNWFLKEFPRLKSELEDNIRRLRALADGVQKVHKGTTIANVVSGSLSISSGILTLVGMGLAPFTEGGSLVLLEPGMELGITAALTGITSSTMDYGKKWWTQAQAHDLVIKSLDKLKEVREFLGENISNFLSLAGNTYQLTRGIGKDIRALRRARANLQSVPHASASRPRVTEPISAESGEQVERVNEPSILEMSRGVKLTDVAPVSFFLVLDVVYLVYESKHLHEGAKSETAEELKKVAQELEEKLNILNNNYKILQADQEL
Nature of the assay: flow cytometry, live WT and iAPOL1-G0 podocytes. Here is the method: Cells were harvested with 5 mM EDTA in PBS, washed once with growth media and twice with PBS. Approximately 0.5×10⁶/m1 of cells resuspended in PBS were incubated with anti-APOL1 antibodies for 1 h on ice. Following two PBS washes, 2 μg/ml of Alexa488 anti-mouse or anti-rabbit (Invitrogen A11029 and A21206, respectively) was used for 1 h on ice for detection. Cells were washed twice in PBS and resuspended in PBS with 1 μg/ml propidium iodide. Signals were read in a FACSCalibur3 (Becton Dickinson), with the exception of FIG. 8A and FIG. 14, which used a FACSCelesta, and data was analyzed using FlowJo v8.4.5. Mean fluorescence intensities were plotted in PRISM v7 after subtraction of secondary antibody alone background. For low pH experiments, cells were incubated with the antibodies in the presence of PBS pH 7.0 or PBS pH 5.5 for an hour on ice and detected with secondary antibodies at neutral pH.
More importantly, there were also differential APOL1 accessibilities between serum APOL1 and kidney disease-relevant podocytes (FIG. 18B). Some antibodies bound surface APOL1 in WT and iAPOL1 podocytes (FIG. 6A, 6B), but not circulating APOL1 (as judged by lack of trypanolytic blockade, FIG. 6C) and vice versa. […] Conversely, 3.3B6 and 4.17A5 were among the top trypanolytic blockers, but recognized the podocyte surface relatively weakly. […]

B1: antibody 4.12E5 (antibody, V domains shown)
VH: EVQLQQSGPELVKTGASVKISCKASGYSFTGYFMHWVKQSHGKSLEWIGYISCYNGASVYNQRFKGKATFTIDTSSSTAYMQFNSLTSEDSAVYYCARDVLRYPRYAVDYWGQGTSVTVSS
VL: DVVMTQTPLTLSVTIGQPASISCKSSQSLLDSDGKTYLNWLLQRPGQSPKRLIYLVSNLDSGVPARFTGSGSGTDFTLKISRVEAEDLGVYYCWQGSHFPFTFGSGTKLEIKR
notes: Mouse mAb, cloned as murine IgG2a LALAPG
For the molecule B1, the binding result in assay [1] is listed as “binds”.

B2: antibody 3.7D6 (antibody, V domains shown)
VH: QIQLVQSGPDLKKPGETVKISCRTSGYAFTNYGVNWVKQAPGKGLKWMGWINTNTGQTTYAEEFRGRFAISLETSASTAFLTISNLKNEDSATYFCARLIYDGDYISSDFWGQGTTLTVSS
VL: DIQMTQSPDSLSASVGETVTITCGASENIYGALNWYQRKQGKSPQLLIYGATNLADGMSSRFSGSRSGRQYSLKISSLHPDDVATYYCQNALSMPYTFGGGTKLEIKR
notes: Mouse mAb, cloned as murine IgG2a LALAPG; those versions are not written separately; also called PFD antibody 3.7D6
As for B2, in assay [2], the binding result was “no binding (tested: 5 µg/ml)”.

B3: antibody 4.17A5 (antibody, V domains shown)
VH: QVQLQQSGPELLKPGASVKISCKGSGYAFSNSWINWVKLRPGQGLEWIGRIYPGDGDTKYNGKFKGKATLTADKSSSTAHMQLRSLTSVDSAVYFCARFPFGKYEGPGAMDYWGQGTSVTVSS
VL: DIQMTQTTSSLSASLGDRVTISCRASQDISSYLNWYQQKPDGTIKLLIYYTSRLHSGVPSRFSGSGSGTDFSLTISNLEQEDIATYFCQQGNTLPYTFGGGTKLEIKR
notes: Mouse mAb (Method #4), cloned as murine IgG2a LALAPG; also called mAb 4.17A5
Take B3: the binding result in assay [3] is recorded as “binds”.
